Data: paper PMC10362037

Biological target: SARS-CoV-2 Omicron (B.1.1.529) Spike S1 (Sino Biological, 40591-V08H41) (SARS-CoV-2)
Test: SPR

Human integrin αvβ3 (R&D Systems, 3817-AV-050) (from UniProt P06756 31-1048; P05106 27-718) (complex)
Kd: 69.4 nM
